Drug metabolism, Km and Vmax data for five molecules are collected here from ChEMBL document CHEMBL3526122, “Identification of UDP-glucuronosyltransferases responsible for the glucuronidation of darexaban, an oral factor Xa inhibitor, in human liver and intestine” (Drug Metab Dispos, 2012).

Data set [1] is described as follows: Drug level in human intestinal microsomes treated with darexaban at 30 uM after 10 mins by LC-MS/MS analysis in presence of UDPGA. Type of data set: ADME, Intestine, Microsome.
The subject of a further data set is Liver microsome. As to the kind of experiment: Drug level in human liver microsomes treated with darexaban at 30 uM after 10 mins by LC-MS/MS analysis in presence of UDPGA. Type of data set: ADME. Background: Liver microsomes are vesicles of endoplasmic reticulum, rich in cytochrome P450 enzymes.
Substrate in data set [2]: COc1ccc(C(=O)Nc2cccc(O)c2NC(=O)c2ccc(N3CCCN(C)CC3)cc2)cc1
As to the kind of experiment: Activity of human recombinant UGT1A9 expressed in baculovirus-infected insect cells assessed as enzyme-mediated glucuronidation after 5 mins by Michaelis-Menten plot analysis in presence of UDPGA and absence of fatty acid free BSA. Type of data set: ADME.

Substrate in data set [3]: COc1ccc(C(=O)Nc2cccc(O)c2NC(=O)c2ccc(N3CCCN(C)CC3)cc2)cc1
As to the kind of experiment: Activity of human recombinant UGT1A9 expressed in baculovirus-infected insect cells assessed as enzyme-mediated glucuronidation after 5 mins by Michaelis-Menten plot analysis in presence of UDPGA. Type of data set: ADME.

Substrate in data set [4]: COc1ccc(C(=O)Nc2cccc(O)c2NC(=O)c2ccc(N3CCCN(C)CC3)cc2)cc1
Kind of data set: Activity of human recombinant UGT1A9 expressed in baculovirus-infected insect cells assessed as enzyme-mediated glucuronidation after 5 mins by Michaelis-Menten plot analysis in presence of UDPGA and 0.1% fatty acid free BSA. Type of data set: ADME.

Substrate in data set [5]: COc1ccc(C(=O)Nc2cccc(O)c2NC(=O)c2ccc(N3CCCN(C)CC3)cc2)cc1
As to the kind of experiment: Activity of human recombinant UGT1A9 expressed in baculovirus-infected insect cells assessed as enzyme-mediated glucuronidation after 5 mins by Michaelis-Menten plot analysis in presence of UDPGA and 2% fatty acid free BSA. Type of data set: ADME.

Substrate in data set [6]: COc1ccc(C(=O)Nc2cccc(O)c2NC(=O)c2ccc(N3CCCN(C)CC3)cc2)cc1
Kind of data set: Activity of human recombinant UGT1A9 expressed in baculovirus-infected insect cells assessed as enzyme-mediated glucuronidation after 5 mins by Michaelis-Menten plot analysis in presence of UDPGA and 0.5% fatty acid free BSA. Type of data set: ADME.

Substrate in data set [7]: COc1ccc(C(=O)Nc2cccc(O)c2NC(=O)c2ccc(N3CCCN(C)CC3)cc2)cc1
As to the kind of experiment: Activity of human recombinant UGT1A10 expressed in baculovirus-infected insect cells assessed as enzyme-mediated glucuronidation after 10 mins in presence of UDPGA. Type of data set: ADME.

Substrate in data set [8]: COc1ccc(C(=O)Nc2cccc(O)c2NC(=O)c2ccc(N3CCCN(C)CC3)cc2)cc1
Kind of data set: Activity of human recombinant UGT1A7 expressed in baculovirus-infected insect cells assessed as enzyme-mediated glucuronidation after 10 mins by Michaelis-Menten plot analysis in presence of UDPGA. Type of data set: ADME.

Substrate in data set [9]: COc1ccc(C(=O)Nc2cccc(O)c2NC(=O)c2ccc(N3CCCN(C)CC3)cc2)cc1
Kind of data set: Activity of human recombinant UGT1A8 expressed in baculovirus-infected insect cells assessed as enzyme-mediated glucuronidation after 10 mins in presence of UDPGA. Type of data set: ADME.

Consider `COc1ccc(C(=O)Nc2cccc(O[C@@H]3O[C@H](C(=O)O)[C@@H](O)[C@H](O)[C@H]3O)c2NC(=O)c2ccc(N3CCCN(C)CC3)cc2)cc1`, for which the Drug metabolism result (in data set [1]; with Liver microsome) was “metabolite_detected” each time.

B1: UDP-glucuronosyltransferase 1A9 (Homo sapiens) (protein)
chain: MACTGWTSPLPLCVCLLLTCGFAEAGKLLVVPMDGSHWFTMRSVVEKLILRGHEVVVVMPEVSWQLGRSLNCTVKTYSTSYTLEDLDREFKAFAHAQWKAQVRSIYSLLMGSYNDIFDLFFSNCRSLFKDKKLVEYLKESSFDAVFLDPFDNCGLIVAKYFSLPSVVFARGILCHYLEEGAQCPAPLSYVPRILLGFSDAMTFKERVRNHIMHLEEHLLCHRFFKNALEIASEILQTPVTEYDLYSHTSIWLLRTDFVLDYPKPVMPNMIFIGGINCHQGKPLPMEFEAYINASGEHGIVVFSLGSMVSEIPEKKAMAIADALGKIPQTVLWRYTGTRPSNLANNTILVKWLPQNDLLGHPMTRAFITHAGSHGVYESICNGVPMVMMPLFGDQMDNAKRMETKGAGVTLNVLEMTSEDLENALKAVINDKSYKENIMRLSSLHKDRPVEPLDLAVFWVEFVMRHKGAPHLRPAAHDLTWYQYHSLDVIGFLLAVVLTVAFITFKCCAYGYRKCLGKKGRVKKAHKSKTH
B1: the Michaelis constant (Km) (commonly the substrate concentration at which the rate is half of its maximum) turned out to be 35.5 µM in data set [2]; 58.2 µM in data set [3]; 22.4 µM in data set [4]; 18.3 µM in [5]; 22.7 µM in data set [6].

B2: UDP-glucuronosyltransferase 1A10 (Homo sapiens) (protein)
chain: MARAGWTSPVPLCVCLLLTCGFAEAGKLLVVPMDGSHWFTMQSVVEKLILRGHEVVVVMPEVSWQLERSLNCTVKTYSTSYTLEDQNREFMVFAHAQWKAQAQSIFSLLMSSSSGFLDLFFSHCRSLFNDRKLVEYLKESSFDAVFLDPFDTCGLIVAKYFSLPSVVFTRGIFCHHLEEGAQCPAPLSYVPNDLLGFSDAMTFKERVWNHIVHLEDHLFCQYLFRNALEIASEILQTPVTAYDLYSHTSIWLLRTDFVLDYPKPVMPNMIFIGGINCHQGKPLPMEFEAYINASGEHGIVVFSLGSMVSEIPEKKAMAIADALGKIPQTVLWRYTGTRPSNLANNTILVKWLPQNDLLGHPMTRAFITHAGSHGVYESICNGVPMVMMPLFGDQMDNAKRMETKGAGVTLNVLEMTSEDLENALKAVINDKSYKENIMRLSSLHKDRPVEPLDLAVFWVEFVMRHKGAPHLRPAAHDLTWYQYHSLDVIGFLLAVVLTVAFITFKCCAYGYRKCLGKKGRVKKAHKSKTH
On to B2, for which, in [7], the Km came out at 34.2 µM and the Vmax (commonly the rate approached at saturating substrate) was determined as 0.00136 µmol/min.

B3: UDP-glucuronosyltransferase 1A7 (Homo sapiens) (protein)
chain: MARAGWTGLLPLYVCLLLTCGFAKAGKLLVVPMDGSHWFTMQSVVEKLILRGHEVVVVMPEVSWQLGRSLNCTVKTYSTSYTLEDQDREFMVFADARWTAPLRSAFSLLTSSSNGIFDLFFSNCRSLFNDRKLVEYLKESCFDAVFLDPFDACGLIVAKYFSLPSVVFARGIFCHYLEEGAQCPAPLSYVPRLLLGFSDAMTFKERVWNHIMHLEEHLFCPYFFKNVLEIASEILQTPVTAYDLYSHTSIWLLRTDFVLEYPKPVMPNMIFIGGINCHQGKPVPMEFEAYINASGEHGIVVFSLGSMVSEIPEKKAMAIADALGKIPQTVLWRYTGTRPSNLANNTILVKWLPQNDLLGHPMTRAFITHAGSHGVYESICNGVPMVMMPLFGDQMDNAKRMETKGAGVTLNVLEMTSEDLENALKAVINDKSYKENIMRLSSLHKDRPVEPLDLAVFWVEFVMRHKGAPHLRPAAHDLTWYQYHSLDVIGFLLAVVLTVAFITFKCCAYGYRKCLGKKGRVKKAHKSKTH
Regarding B3, in [8], the Km turned out to be 59.1 µM and the maximal velocity (Vmax) is 0.000725 µmol/min.

B4: UDP-glucuronosyltransferase 1A8 (Homo sapiens) (protein)
chain: MARTGWTSPIPLCVSLLLTCGFAEAGKLLVVPMDGSHWFTMQSVVEKLILRGHEVVVVMPEVSWQLGKSLNCTVKTYSTSYTLEDLDREFMDFADAQWKAQVRSLFSLFLSSSNGFFNLFFSHCRSLFNDRKLVEYLKESSFDAVFLDPFDACGLIVAKYFSLPSVVFARGIACHYLEEGAQCPAPLSYVPRILLGFSDAMTFKERVRNHIMHLEEHLFCQYFSKNALEIASEILQTPVTAYDLYSHTSIWLLRTDFVLDYPKPVMPNMIFIGGINCHQGKPLPMEFEAYINASGEHGIVVFSLGSMVSEIPEKKAMAIADALGKIPQTVLWRYTGTRPSNLANNTILVKWLPQNDLLGHPMTRAFITHAGSHGVYESICNGVPMVMMPLFGDQMDNAKRMETKGAGVTLNVLEMTSEDLENALKAVINDKSYKENIMRLSSLHKDRPVEPLDLAVFWVEFVMRHKGAPHLRPAAHDLTWYQYHSLDVIGFLLAVVLTVAFITFKCCAYGYRKCLGKKGRVKKAHKSKTH
In the case of B4, in data set [9], the Km amounted to 11.8 µM and the Vmax came out at 0.000608 µmol/min.
